According to patent US20210163582A1 (APRINOIA THERAPEUTICS, published 2021):
Changes are numbered by the printed parent chain.

B1: mAb005 (antibody, V domains shown)
VH: EVQLVESGGGLVKPGGSLKLSCAASGFTFSDYGMHWVRQAPEKGLEWVAYSNSDSTTIYYADTVKGRFTISRDNAKSTLFLQMTSLRSEDTAMYYCGRSYYSNYVDYWGQGTTLTVSS
VL: DIVMTQIPLSLPVSLGDQASISCRSSQSLVHSNGNTYLHWYLQKPGQSPKLLIYKVSNRFSGVPDRFSGSGSGTDFTLKISRVEAEDLGVYFCFQSTHVPPTFGGGTKLEIK
notes: Mouse monoclonal from hybridoma; also called mouse mAb005; original mouse clone (of mAb005)
B2: mAb037 (antibody, V domains shown)
VH: EVQLQQSGPELVKPGASVKIPCKASGYTFTDYNMDWVKQSHGKSLEWIGDINPNTGGTIYNQKFKGKATLTVDKSSSTAYMELRSLTSEDTAVYYCAGEGPYYYGTTHPFAYWGQGTLVTVSA
VL: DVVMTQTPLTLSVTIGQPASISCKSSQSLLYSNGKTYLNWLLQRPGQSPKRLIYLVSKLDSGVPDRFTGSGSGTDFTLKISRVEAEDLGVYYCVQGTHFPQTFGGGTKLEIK
notes: Mouse monoclonal from hybridoma; also called mouse mAb037; original mouse clone (of mAb037)
B3: Humanized mAb005 (antibody, V domains shown)
VH: EVQLVESGGGLVQPGGSLRLSCAASGFTFSDYGMHWVRQAPGKGLEWVAYSNSDSTTIYYADTVKGRFTISRDNAKNSLYLQMNSLRAEDTAVYYCGRSYYSNYVDYWGQGTLVTVSS
VL: B1 VL with I2V, I7S, S14T, D17Q, Q18P, K44R, K50R, L88V, G105Q
notes: also called humanized variant of mAb005
B4: Humanized mAb037 (antibody, V domains shown)
VH: QVQLVQSGAEVKKPGASVKVSCKASGYTFTDYNMDWVRQAHGQGLEWIGDINPNTGGTIYNQKFKGRATLTVDTSISTAYMELSRLRSDDTAVYYCAGEGPYYYGTTHPFAYWGQGTLVTVSS
VL: DVVMTQSPLSLPVTLGQPASISCKSSQSLLYSNGKTYLNWLLQRPGQSPRRLIYLVSKLDSGVPDRFSGSGSGTDFTLKISRVEAEDVGVYYCVQGTHFPQTFGGGTKLEIK
notes: also called humanized variant of mAb037

target: Tau in 6-month-old rTg4510 brain lysate (UniProt P10636-6 2-383, limits assumed); assay: cell-based or functional assay
Sequence (P10636 other isoform, or with tags, fused parts or gaps limits assumed): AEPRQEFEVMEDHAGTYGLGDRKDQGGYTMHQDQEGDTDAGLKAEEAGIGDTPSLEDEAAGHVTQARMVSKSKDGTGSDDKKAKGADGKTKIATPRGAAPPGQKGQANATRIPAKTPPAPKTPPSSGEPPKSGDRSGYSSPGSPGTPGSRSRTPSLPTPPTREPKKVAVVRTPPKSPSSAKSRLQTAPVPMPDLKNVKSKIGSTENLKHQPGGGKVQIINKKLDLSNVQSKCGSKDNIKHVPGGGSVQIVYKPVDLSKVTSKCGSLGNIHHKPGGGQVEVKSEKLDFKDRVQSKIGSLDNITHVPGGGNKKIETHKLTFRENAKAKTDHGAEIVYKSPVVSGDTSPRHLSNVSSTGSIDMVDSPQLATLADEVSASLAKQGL

Binder | EC50 of inhibition of Tau seeding (Tau spots per cell in Tau-LM reporter cells) [nM]
B1 | 72.2
B2 | 22.9

target: T1, Tau species in AD (Alzheimer's disease) brain lysate (human, UniProt P10636-8 2-441, limits assumed); assay: dot-blot on spotted AD total brain lysate, antibody in 2-fold dilutions from 6×10^-8 M
T1 construct: Endogenous Tau of a tissue lysate, not a defined construct; also called AD Tau protein; AD brain homogenate
Description: To facilitate the therapeutic potentials of mAb005 and mAb037, humanization of mAb005 and mAb037 was performed by grafting the complementary determining regions (CDRs) of Variable Heavy chain (VH) and Variable Light chain (VL) into a human IgG4 S228P backbone (no Fab-arm exchange mutant, Silva et al., 2015 JBC). Four point-mutations were introduced in the nearby residues surrounding the CDRs to conserve the functionality of the resulting variants. Dot-blot analysis was performed to determine the EC₅₀ of each variant, compared with the original mouse/chimeric clones as well as to visualize the specificity to AD Tau protein compared with ND Tau protein. […] Dot-blot experiments were performed by spotting of ND and AD total brain lysates in triplicate, and antibody solutions were diluted serially by a dilution factor of 2 from a maximum concentration of 6×10⁻⁸ M. Summary graphs denote Mean±SD of 3 independent experiments for mAb005 and Mean±SD of triplicated wells.

T1 sequence (P10636 other isoform, or with tags, fused parts or gaps limits assumed): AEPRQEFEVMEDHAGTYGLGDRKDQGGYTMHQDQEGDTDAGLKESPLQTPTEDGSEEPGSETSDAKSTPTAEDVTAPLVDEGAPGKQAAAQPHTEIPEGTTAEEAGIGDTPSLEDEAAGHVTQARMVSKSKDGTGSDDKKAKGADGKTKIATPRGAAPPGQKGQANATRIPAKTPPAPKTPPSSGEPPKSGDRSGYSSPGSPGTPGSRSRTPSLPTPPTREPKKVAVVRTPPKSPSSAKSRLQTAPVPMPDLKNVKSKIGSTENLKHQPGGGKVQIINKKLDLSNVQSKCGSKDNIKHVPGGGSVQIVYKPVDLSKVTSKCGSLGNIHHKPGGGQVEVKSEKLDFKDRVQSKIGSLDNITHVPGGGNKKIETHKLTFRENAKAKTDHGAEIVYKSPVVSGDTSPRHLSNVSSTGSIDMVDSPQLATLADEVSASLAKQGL

Binder | EC50 [nM]
B1 | 0.4
B3 | 0.43
B4 | 0.95
B2 | 0.54
